Test: yeast display, Sf9 membrane polyspecificity reagent, FACS + sequencing; frameworks hold sequencing errors
Procedure, shortened: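 A nanobody's polyreactivity label depends on the gate it was sorted from. Yeast display cells were stained with 10% biotinylated, detergent-solubilized Sf9 membrane reagent for 1 hour at 4 °C, enriched on streptavidin microbeads and sorted by FACS. The low and high (top ~1%) gates were set on anti-HA fluorescence for expression and streptavidin fluorescence for reagent binding.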

Row | Sequence | polyreactivity (PSR sort gate)
1 | QVQLVESGGGLVQAGGSLRLSCAASGSIFYNAMGWYRQAPGKERELVAAISYRGGRTYYADSVKGRFTISRDNAKNTVYLQMNSLKPEDTAVYYCAADSTVGRYPYDYWGQGTQVTVSS | high polyreactivity
2 | QVQLVESGGGLVQAGGSLRLSCAASGSIFYNAMGWYRQAPGKERELVAAITSGGRTYYADSVKGRFTISRDNAKNTVYLQMNSLKPEDTAVDYCAADVRRVRVGKYDYWGQGTQVTVSS | high polyreactivity
3 | QVQLVESGGGLVQAGGSLRLSCAASGSIFYNNAMGWYRQAPGKERELVAAISLRGGSTYYADSVKGRFTISRDNAKNTVYLQMNSLKPEDTAVYYCAAGVRSPFRGGYYWGQGTQVTVSS | high polyreactivity
4 | QVQLVESGGGLVQAGGSLRLSCAASGSIFYNYSMGWYRQAPGKERELVATITRSDGSTYYADSVKGRFTISRDNAKNTVYLQMNSLKPEDTAVYYCNADSLWDRAFGYYYWGQGTQVTVSS | low polyreactivity
5 | QVQLVESGGGLVQAGGSLRLSCAASGSIFYPNAMGWYRQAPGKERELVAAISIGGGRTYYADSVKGRFTISRDNAKNTVYLQMNSLKPEDTAVYYCAATRVDSDDRTRFYYWGQGTQVTVSS | high polyreactivity
6 | QVQLVESGGGLVQAGGSLRLSCAASGSIFYPNVMGWYRQAPGKERELVATISRGGTTNYADSVKGRFTISRDNAKNTVYLQMNRLKPEDTAVYYCAAPIGDVYVGKGYDSWGQGTQVTVSS | low polyreactivity
7 | QVQLVESGGGLVQAGGSLRLSCAASGSIFYPYAMGWYRQAPGKERELVAAISRSGGSTRYADSVKGRFTISRDNAKNTVYLQMNSLKPEDTAVYYCAVRVFYGVGLIGYYYWGQGTQVTVSS | high polyreactivity
8 | QVQLVESGGGLVQAGGSLRLSCAASGSIFYPYAMGWYRQAPGKERELVAAISYNGGSTYYADSVKGRFTISRDNAKNTVYLQMNSLKPEETAVYYCAARPYHGKLDYWGQGTQVTVSS | low polyreactivity
9 | QVQLVESGGGLVQAGGSLRLSCAASGSIFYPYAMGWYRQAPGKERELVAVINDTGSTYYADSVKGRFTISRDNAKNTVYLQMNSLKPEETAVYYCNTATYVDSFPDPGDHWGQGTQVTVSS | low polyreactivity
10 | QVQLVESGGGLVQAGGSLRLSCAASGSIFYPYVMGWYIQAPGKESELVASISRRGGRTYYADSVKGRFTISRDYAKNTVYLEMNSLKPEDTAVYYCAKRTYDSFYGYYYWGQVTQVTVSS | high polyreactivity
11 | QVQLVESGGGLVQAGGSLRLSCAASGSIFYQNVMGGYRQAPGKERELVAAISSSGDSTYYADSVKGRFTISRDNAKNTVYLQMNSLKPEDTAVYYCAAEPEYVSGPYDYWGQGTQVTVSS | low polyreactivity
12 | QVQLVESGGGLVQAGGSLRLSCAASGSIFYQYAMGWYRQAPGKERELVAAISQNGGRTYYADSVKGRFTISRDNAKNKVYLQMNRLKPEDTAVYYFAARHAPTRYGYWGQGTEVTVSS | high polyreactivity
13 | QVQLVESGGGLVQAGGSLRLSCAASGSIFYRNAMGGYRQAPGKERELVAAIAGTGGSTYYADSVKGRFTISRDNAKNTVYLQMNSLKPEDTAVYYCASGVTYRHDYWRQGTQVTVSS | high polyreactivity
14 | QVQLVESGGGLVQAGGSLRLSCAASGSIFYRNAMGWYRQAPGKERELVAAISSDGSTNYADSVKGRFTISRDNAKNTVYLQMNSLKPEDTAVYYCNVPYYLPSYLSGYDYWGQGTQVTVSS | low polyreactivity
15 | QVQLVESGGGLVQAGGSLRLSCAASGSIFYRNAMGWYRQAPGKERELVAAITSSGGSTYYADSVKGRFTISRDNAKNTVYLQMNSLKPEDTAVYYCATRGWSKQLYGGYTQYYYWGQGTQVTVSS | high polyreactivity
16 | QVQLVESGGGLVQAGGSLRLSCAASGSIFYRNAMGWYRQAPGKERELVAAITSSGGSTYYADSVKGRFTISRDNAKYTVYFQMNSLKPEDTAVYYCNSVVTKFAKCRFLYYYWGQGTQVTVSS | high polyreactivity
17 | QVQLVESGGGLVQAGGSLRLSCAASGSIFYRNAMGWYRQAPGKERELVAVITRRGGRTYYADSVKGRFTISRDNAKNTVDLQMNSLKPEDTAVYYCNADTANYADGLDYWGQGTQVTVSS | low polyreactivity
18 | QVQLVESGGGLVQAGGSLRLSCAASGSIFYRNTMGWYRQAPGKERELVAAITSGGGTNYADSVKGRFTISRDNAKNTVYLQMNSLKPEDTAVYYCAASRQYTVGFYSWGQGTQVTVSS | high polyreactivity
19 | QVQLVESGGGLVQAGGSLRLSCAASGSIFYRNTMGWYRQAPVKERELVAAITSSGDSTYYADSVKGRFTISRDNAKNTVYFQMNSLKPEDTAVYYCAKDQHDFLEALYDSWGQGTQVTVSS | low polyreactivity
20 | QVQLVESGGGLVQAGGSLRLSCAASGSIFYRNVMGWYRQAPGKERELVAAISWSGGSTYYADSVKGRFTISRDKSKNTVYLQMNSLKPEDTAVYYCAADIPKTCYPYAFEYWGQGTQVTVSS | low polyreactivity
21 | QVQLVESGGGLVQAGGSLRLSCAASGSIFYRYAMGWYRQAPGKERELVAAIRSRTGRTYYADSVKGRFTISRDNAKNTVYLQMNCLNPEDTAVYYCAADKYFSARFDYWGQGTQVTVSS | high polyreactivity
22 | QVQLVESGGGLVQAGGSLRLSCAASGSIFYRYAMGWYRQAPGKERELVAAISFRTGSTYYADSVKGRFTISRDNAKNTVYFQMNSLKPEDTAVYYCAAEQLSTLRQRFDSWGQGTQVTVSS | high polyreactivity

Row | Sequence | polyreactivity (PSR sort gate)
23 | QVQLVESGGGLVQAGGSLRLSCAASGSIFYRYAMGWYRQAPGKERELVAAISYSGGSTYYADSVKGRFTISRDNAKNTVYLQMNSQKPEDTAVYYCAKDYPPPISDYSRYYGYGYWGKGTQVTVSS | low polyreactivity
24 | QVQLVESGGGLVQAGGSLRLSCAASGSIFYRYAMGWYRQAPGKERELVATIRSGGSTNYADSVKGRFTISRDNAKNTVYLQMKSLKPEDTAVYYCAAVTPETQPDSGPVPPMDSWGQGTQVTVSS | low polyreactivity
25 | QVQLVESGGGLVQAGGSLRLSCAASGSIFYRYSMGWYRPAPGKESELVATITQSGVTTYYADSVKGRFTISRDNAKNTVYLELNSVKPEDTAVYYCAASYYYYLGPFFRKFDWGQGTQVTVSS | low polyreactivity
26 | QVQLVESGGGLVQAGGSLRLSCAASGSIFYSNAMGWYRQAPGKEREFVATITQTGSSTYDADSVKGRFTISRDNAKNTVYLQMNSLKPEVTAVYYCAVDWILYEYEDDFWYRYDYWGQGTQVTVSS | low polyreactivity
27 | QVQLVESGGGLVQAGGSLRLSCAASGSIFYSNAMGWYRQAPGKERELVAAISGSGGTTYYADSVKGRFTISRDNAKNTVYIQMNSLKPEDTAVYYCAAKPRVRVRLSDYWGQGTQVTVSS | high polyreactivity
28 | QVQLVESGGGLVQAGGSLRLSCAASGSIFYSNTMGWYSQAPGKERELVAAISSSSGRTYYADSVKGRFTISRDNAKNTVYLQMNSLKPEDTAVYYCARRYGWGQGTQVTVSS | high polyreactivity
29 | QVQLVESGGGLVQAGGSLRLSCAASGSIFYSNVMGWYRQAPGKERELVASITNGGGTYYADSVKGRFTISRDNAKNTVYLQMNSLKPEDTAVYYCAADPDRTAYDYWGQGTQVTVSS | low polyreactivity
30 | QVQLVESGGGLVQAGGSLRLSCAASGSIFYSYAKGSYLQAPGKERELVADITFSGVSTYYADSVKGRFTISRDNAKNTVYLQMKSLKTEDTAVYYGAADGVSRWYLYRWYDYDYWGQGTQVTVSS | low polyreactivity
31 | QVQLVESGGGLVQAGGSLRLSCAASGSIFYSYAMGWYIQAPGKERELVAVISSGGRTNYADSVKGRFTISRDNAKNTVYLQMNSLKPEDTAVYYCAARNYLYRYARAYDYWGQGTQVTVSS | high polyreactivity
32 | QVQLVESGGGLVQAGGSLRLSCAASGSIFYSYAMGWYRQAPGKERELVADITITGSTYYADSVKGRFTISRDNAKNTVYLQMNSLKPDDTAVYYCNAVLAPGGYDYWGQGTQVTVSS | low polyreactivity
33 | QVQLVESGGGLVQAGGSLRLSCAASGSIFYTNAMGWYRQAPGKERELVAAISCSGDSTYYADSVKGRFTISRDNAKNTVYLQMNSLKPEDTAVYYCNADRRSYNGFRYYYWGQGTQVTVSS | low polyreactivity
34 | QVQLVESGGGLVQAGGSLRLSCAASGSIFYTNAMGWYRQAPGKERELVAAISISGSTYYADSVKGRFTISRDNAKNTVYLQMNSLKPEDTAVYYCAAGPGYVRYPRSGVWYVTLYDYWGQGTQVTVSS | high polyreactivity
35 | QVQLVESGGGLVQAGGSLRLSCAASGSIFYTNAMGWYRQAPGKERELVAAYADSVKGRFTISRDNAKNTVYLQMNSLKPEDTAVYYCNAVLPIYRYLYEGDYWGQGTQVTVSS | low polyreactivity
36 | QVQLVESGGGLVQAGGSLRLSCAASGSIFYTNAMGWYRQAPGKERELVASITGGGSTKYADSVKGRFTISRDNAKNTVYLQMNSLKPEDTAVYYCAKRRYWPLDWGQGTQVTVSS | high polyreactivity
37 | QVQLVESGGGLVQAGGSLRLSCAASGSIFYTYAMGWYRQAPGKERELVAAISRSGGSTYYADSVKGRFTISRDNAKNTVYVQMNSLKPEETAVYYCAAVSYRGRGYWGQGTQVTVSS | high polyreactivity
38 | QVQLVESGGGLVQAGGSLRLSCAASGSIFYTYTMGWYRQAPGKERELVAAISWSGGSTYYADSVKGRFTISRDNAKNTVYLQMISLKPEDTAVYYCAAYGTGYYGYDYWGQGTQVTVSS | low polyreactivity
39 | QVQLVESGGGLVQAGGSLRLSCAASGSIFYVNAMGWYRQAPGKERELVAAISVRGGRTYYADSVKGRFTISRDNAKNTVYLQMNSLKPEDTAVYYCATRISTVGRYDYWGQGTQVTVSS | high polyreactivity
40 | QVQLVESGGGLVQAGGSLRLSCAASGSIFYVNTMVWYRQAPGKERELVAGITSRGGSTYYADSVKGRFTISRDNAKNSVYLQMNSLKPEDTAVYYCAKRAYGTALYRGYGYWGQGTQVTVSS | low polyreactivity
41 | QVQLVESGGGLVQAGGSLRLSCAASGSIFYVYAMGWYGQAPGKDRELVASISWGDSSTYYADSVKGRFTISRDTAKNTVYLQMNSLKPEDTAVYYCAADEYRQYALYDYWGQGTQVTVSS | low polyreactivity
42 | QVQLVESGGGLVQAGGSLRLSCAASGSIFYVYAMGWYRQAPGKERELVAAITARVTSTYYADSVKGRFTISRDNAKNTVYLQMNSLKPEDTAVYSCAARTSYKTGYRKYDYWGQATQVTVSS | low polyreactivity
43 | QVQLVESGGGLVQAGGSLRLSCAASGSIFYVYAMGWYRQAPGKERELVAAITNYADSVKGRFTISRDNAKNTVYLQMNSLKPEDTAVYYCAADWWRVEMDYWGQVTQVTVSS | low polyreactivity
